T1: recombinant human fortilin (Strep-tag II), biotinylated (human, UniProt P13693 1-172, biotinylated (sites not given))
T1 chain: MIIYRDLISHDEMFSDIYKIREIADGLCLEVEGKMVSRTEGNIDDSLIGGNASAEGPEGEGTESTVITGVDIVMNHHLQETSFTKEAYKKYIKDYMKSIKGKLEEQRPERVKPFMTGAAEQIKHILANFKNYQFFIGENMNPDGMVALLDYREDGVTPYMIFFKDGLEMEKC

B1: GST-IRE1α-TM (aa 401-500) (domain or fragment)
chain: EEVINLVDQTSENAPTTVSRDVEEKPAHAPARPEAPVDSMLKDMATIILSTFLLIGWVAFIITYPLSMHQQQQLQHQQFQKELEKIQLLQQQQQQLPFHP
B2: GST-IRE1α-C (aa 468-977) (domain or fragment)
chain: MHQQQQLQHQQFQKELEKIQLLQQQQQQLPFHPPGDTAQDGELLDTSGPYSESSGTSSPSTSPRASNHSLCSGSSASKAGSSPSLEQDDGDEETSVVIVGKISFCPKDVLGHGAEGTIVYRGMFDNRDVAVKRILPECFSFADREVQLLRESDEHPNVIRYFCTEKDRQFQYIAIELCAATLQEYVEQKDFAHLGLEPITLLQQTTSGLAHLHSLNIVHRDLKPHNILISMPNAHGKIKAMISDFGLCKKLAVGRHSFSRRSGVPGTEGWIAPEMLSEDCKENPTYTVDIFSAGCVFYYVISEGSHPFGKSLQRQANILLGACSLDCLHPEKHEDVIARELIEKMIAMDPQKRPSAKHVLKHPFFWSLEKQLQFFQDVSDRIEKESLDGPIVKQLERGGRAVVKMDWRENITVPLQTDLRKFRTYKGGSVRDLLRAMRNKKHHYRELPAEVRETLGSLPDDFVCYFTSRFPHLLAHTYRAMELCSHERLFQPYYFHEPPEPQPPVTPDAL
B3: de-phosphorylated IRE1α-Myc-DDK (aa 1-977) (natural protein)
chain: IFGSTSTVTLPETLLFVSTLDGSLHAVSKRTGSIKWTLKEDPVLQVPTHVEEPAFLPDPNDGSLYTLGSKNNEGLTKLPFTIPELVQASPCRSSDGILYMGKKQDIWYVIDLLTGEKQQTLSSAFADSLCPSTSLLYLGRTEYTITMYDTKTRELRWNATYFDYAASLPEDDVDYKMSHFVSNGDGLVVTVDSESGDVLWIQNYASPVVAFYVWQREGLRKVMHINVAVETLRYLTFMSGEVGRITKWKYPFPKETEAKSKLTPTLYVGKYSTSLYASPSMVHEGVAVVPRGSTLPLLEGPQTDGVTIGDKGECVITPSTDVKFDPGLKSKNKLNYLRNYWLLIGHHETPLSASTKMLERFPNNLPKHRENVIPADSEKKSFEEVINLVDQTSENAPTTVSRDVEEKPAHAPARPEAPVDSMLKDMATIILSTFLLIGWVAFIITYPLSMHQQQQLQHQQFQKELEKIQLLQQQQQQLPFHPPGDTAQDGELLDTSGPYSESSGTSSPSTSPRASNHSLCSGSSASKAGSSPSLEQDDGDEETSVVIVGKISFCPKDVLGHGAEGTIVYRGMFDNRDVAVKRILPECFSFADREVQLLRESDEHPNVIRYFCTEKDRQFQYIAIELCAATLQEYVEQKDFAHLGLEPITLLQQTTSGLAHLHSLNIVHRDLKPHNILISMPNAHGKIKAMISDFGLCKKLAVGRHSFSRRSGVPGTEGWIAPEMLSEDCKENPTYTVDIFSAGCVFYYVISEGSHPFGKSLQRQANILLGACSLDCLHPEKHEDVIARELIEKMIAMDPQKRPSAKHVLKHPFFWSLEKQLQFFQDVSDRIEKESLDGPIVKQLERGGRAVVKMDWRENITVPLQTDLRKFRTYKGGSVRDLLRAMRNKKHHYRELPAEVRETLGSLPDDFVCYFTSRFPHLLAHTYRAMELCSHERLFQPYYFHEPPEPQPPVTPDAL
B4: recombinant human phospho-IRE1α-Myc-DDK (aa 1-977) (natural protein)
chain: IFGSTSTVTLPETLLFVSTLDGSLHAVSKRTGSIKWTLKEDPVLQVPTHVEEPAFLPDPNDGSLYTLGSKNNEGLTKLPFTIPELVQASPCRSSDGILYMGKKQDIWYVIDLLTGEKQQTLSSAFADSLCPSTSLLYLGRTEYTITMYDTKTRELRWNATYFDYAASLPEDDVDYKMSHFVSNGDGLVVTVDSESGDVLWIQNYASPVVAFYVWQREGLRKVMHINVAVETLRYLTFMSGEVGRITKWKYPFPKETEAKSKLTPTLYVGKYSTSLYASPSMVHEGVAVVPRGSTLPLLEGPQTDGVTIGDKGECVITPSTDVKFDPGLKSKNKLNYLRNYWLLIGHHETPLSASTKMLERFPNNLPKHRENVIPADSEKKSFEEVINLVDQTSENAPTTVSRDVEEKPAHAPARPEAPVDSMLKDMATIILSTFLLIGWVAFIITYPLSMHQQQQLQHQQFQKELEKIQLLQQQQQQLPFHPPGDTAQDGELLDTSGPYSESSGTSSPSTSPRASNHSLCSGSSASKAGSSPSLEQDDGDEETSVVIVGKISFCPKDVLGHGAEGTIVYRGMFDNRDVAVKRILPECFSFADREVQLLRESDEHPNVIRYFCTEKDRQFQYIAIELCAATLQEYVEQKDFAHLGLEPITLLQQTTSGLAHLHSLNIVHRDLKPHNILISMPNAHGKIKAMISDFGLCKKLAVGRHSFSRRSGVPGTEGWIAPEMLSEDCKENPTYTVDIFSAGCVFYYVISEGSHPFGKSLQRQANILLGACSLDCLHPEKHEDVIARELIEKMIAMDPQKRPSAKHVLKHPFFWSLEKQLQFFQDVSDRIEKESLDGPIVKQLERGGRAVVKMDWRENITVPLQTDLRKFRTYKGGSVRDLLRAMRNKKHHYRELPAEVRETLGSLPDDFVCYFTSRFPHLLAHTYRAMELCSHERLFQPYYFHEPPEPQPPVTPDAL
modifications: phosphorylated (sites not stated for this preparation)

How the values were obtained:
[1] = biological target: T1, recombinant human fortilin (Strep-tag …); test: BLI
[2] = biological target: T1, recombinant human fortilin (Strep-tag …); test: BLI; dephosphorylated IRE1α
[3] = biological target: T1, recombinant human fortilin (Strep-tag …); test: BLI; phosphorylated IRE1α

Binder	Kd [1] [µM]	other results
B1	4190	
B2	0.67	
B3		Kd [2]: 1.05 µM
B4		Kd [3]: 0.32 µM

— article PMC5446404 (2017)
